# Measurements as given in the Human Domainome abundance scans (Beltran et al. 2025).
# ± gives the uncertainty stated by the source.
# B1: Ankyrin-1, residues 1405 to 1484; numbered along this chain, P16157 (parent)
# chain: MKMAVISEHLGLSWAELARELQFSVEDINRIRVENPNSLLEQSVALLNLWVIREGQNANMENLYTALQSIDRGEIVNMLE
# Variants of: B1
# Test: abundance fitness (aPCA) (normalised: wild type 0, dead -1); higher = more abundant; growth selection in yeast, the domain comes from the species named
# Conditions: Homo sapiens
row,Variant,abundance fitness
1,MKMAVISEHLGLSWAELARELQFSVEDINRIRVENPNSLLEQSVALLNLWVIREGQNANNENLYTALQSIDRGEIVNMLE [M60N],-0.723 ± 0.47
2,MKMAVISEHLGLSWAELARELQFSVEDINVIRVENPNSLLEQSVALLNLWVIREGQNANMENLYTALQSIDRGEIVNMLE [R30V],-0.192 ± 0.055
3,MKMAVISEHLGLSWAELARELQFSKEDINRIRVENPNSLLEQSVALLNLWVIREGQNANMENLYTALQSIDRGEIVNMLE [V25K],-0.005 ± 0.11
4,MKMAVISEWLGLSWAELARELQFSVEDINRIRVENPNSLLEQSVALLNLWVIREGQNANMENLYTALQSIDRGEIVNMLE [H9W],-0.251 ± 0.096
5,MKMAVISEHLGLSWAELARELQFSVEDINRIRVENPNSLLEQSVALLNLWVIREGQNANMENLYTALQSIDRGEIVEMLE [N77E],-0.111 ± 0.11
6,MKMAVISEHLGLSWAELARELQFSVEDINRIRVENPNSLLEQSVALLNLWVIREGQNANMENLYTALQSTDRGEIVNMLE [I70T],-0.651 ± 0.14
7,MKMAVISEHLGLSWAELARELQFSVEDINRIRVENPNSLLEQSVALLNLWVIREGWNANMENLYTALQSIDRGEIVNMLE [Q56W],-0.232 ± 0.16
8,MKMAVISEHLGLSWAELARELQFSVEDINRIRVENPNSLLEQSVALLNLWVIREGQNANMENLYTALQSIDRGEDVNMLE [I75D],-0.54 ± 0.39
9,MKMAVISEHLGLSWAELARELQFSVEDINRIRVENPNSLLEQSVALLNLWVIREGQNANMENLYTALQSIDRGEPVNMLE [I75P],-0.546 ± 0.14
10,MKMAVISEHLGLSWAELARELQFSVEDINRIRVENPFSLLEQSVALLNLWVIREGQNANMENLYTALQSIDRGEIVNMLE [N37F],-0.152 ± 0.23
11,MKMAVISEHLGLSWAELARELQFSVEDINRIRVENPCSLLEQSVALLNLWVIREGQNANMENLYTALQSIDRGEIVNMLE [N37C],-0.314 ± 0.2
12,MKMAVISEHLGLSWAELARELQFSVEDINRIRVENPNSLLEQSVALLNLWVIRELQNANMENLYTALQSIDRGEIVNMLE [G55L],-0.871 ± 0.2
13,MKMAVISGHLGLSWAELARELQFSVEDINRIRVENPNSLLEQSVALLNLWVIREGQNANMENLYTALQSIDRGEIVNMLE [E8G],-0.273 ± 0.039
14,MKMAVISEHLGLSWAELARELQFSVEDINRIRVENPNSLLEQSVALLNLWVGREGQNANMENLYTALQSIDRGEIVNMLE [I52G],-0.351 ± 0.35
15,MKMAVISEHLGLSWAELARELQFSVEDKNRIRVENPNSLLEQSVALLNLWVIREGQNANMENLYTALQSIDRGEIVNMLE [I28K],-0.686 ± 0.18
16,MKMAVISEHLGLSWAELARELQFSVEDINRIRVENPNSLLEQSVALLNLWVIREGQNANMENLYTGLQSIDRGEIVNMLE [A66G],-0.197 ± 0.048
17,MKMAVISEHLGLSWAELARELQFSVEDINRIRVENPNSLLEQSVALLNLWVIREGQNANMENLYTTLQSIDRGEIVNMLE [A66T],-0.794 ± 0.13
18,MKMAVISEHLGLSWAELARELQFSVEDINRIRVENPNSLLEQSVALLNLWVIREGQNANMENLYTALQSIDRGDIVNMLE [E74D],0.16 ± 0.16
19,MKMAVISEHLGLSWAELARELQFSVEDINRIRVENPNSLLEQSVALLNLWVIREGQNANMENLYTALQSIDRGKIVNMLE [E74K],-0.471 ± 0.12
20,MKMAVISEHLGLSWAELARELQFSVEDINRIRVENPNSLLEQSVALLNLWVIREGQNANMENLYTALQSIDRGHIVNMLE [E74H],-0.082 ± 0.18
21,MKMAVISEHLGLSWAEGARELQFSVEDINRIRVENPNSLLEQSVALLNLWVIREGQNANMENLYTALQSIDRGEIVNMLE [L17G],-0.972 ± 0.12
22,MKMAVISEHLGLSWAELARELQFSVEDINRIRVENPNSLLEQSVALLNLWVIREGQNANMENLYTALQSIDRGEIVNQLE [M78Q],-0.061 ± 0.098
23,MKMAVISEHLGLSWAELARELQFSVEDINRIRVENPNSLLEQSVALLNLWVIREGQNANMENLYTALQSIDRGEIVNRLE [M78R],0.034 ± 0.051

row,Variant,abundance fitness
1,MKMAVISEHLGLSWAELARELQFSVEDINRIRVENPNSLLEQSVALLNLWVIREGQNANMENLYTALQSIDRGEIVNMDE [L79D],-0.54 ± 0.32
2,MKMAVISEHLGLSWAELARRLQFSVEDINRIRVENPNSLLEQSVALLNLWVIREGQNANMENLYTALQSIDRGEIVNMLE [E20R],-0.127 ± 0.053
3,MKMAVISEHLGLSWAELARELQFSVEDINRIRVEYPNSLLEQSVALLNLWVIREGQNANMENLYTALQSIDRGEIVNMLE [N35Y],-0.42 ± 0.3
4,MKMAVISEHLGLSWAELARELQFSVEDINRIRVEIPNSLLEQSVALLNLWVIREGQNANMENLYTALQSIDRGEIVNMLE [N35I],-0.457 ± 0.11
5,MKMAVISEHLGLSWAELARELQFSVEDINRQRVENPNSLLEQSVALLNLWVIREGQNANMENLYTALQSIDRGEIVNMLE [I31Q],-0.712 ± 0.11
6,MKMAVISEHLGLSWAELARELQFSVEDINRIRVENPNSLLEQSVMLLNLWVIREGQNANMENLYTALQSIDRGEIVNMLE [A45M],-0.173 ± 0.12
7,MKMAVISEHLGLSWAELARECQFSVEDINRIRVENPNSLLEQSVALLNLWVIREGQNANMENLYTALQSIDRGEIVNMLE [L21C],-0.727 ± 0.33
8,MKMAVISEHLGLSWAELAREWQFSVEDINRIRVENPNSLLEQSVALLNLWVIREGQNANMENLYTALQSIDRGEIVNMLE [L21W],-0.666 ± 0.13
9,MKMAVISEHLGLSWAELARELQCSVEDINRIRVENPNSLLEQSVALLNLWVIREGQNANMENLYTALQSIDRGEIVNMLE [F23C],-0.51 ± 0.16
10,MKMAVISEHLGLSWAELARELQFSVEDINRIRVENPNSLCEQSVALLNLWVIREGQNANMENLYTALQSIDRGEIVNMLE [L40C],-0.373 ± 0.097
11,MKMAVISEHLGLSWAELARELQFSVEDINRIRVENPNSLMEQSVALLNLWVIREGQNANMENLYTALQSIDRGEIVNMLE [L40M],-0.067 ± 0.081
12,MKMAVISEHLGLSWAELARELQFSVEDINRIRVENPNSLLEQSVALLNLWVIREGQNANMENLYTALVSIDRGEIVNMLE [Q68V],-0.08 ± 0.054
13,MKMAVISEHQGLSWAELARELQFSVEDINRIRVENPNSLLEQSVALLNLWVIREGQNANMENLYTALQSIDRGEIVNMLE [L10Q],-0.898 ± 0.29
14,MKMAVISEHLGLSWAELAAELQFSVEDINRIRVENPNSLLEQSVALLNLWVIREGQNANMENLYTALQSIDRGEIVNMLE [R19A],-0.047 ± 0.06
15,MKMAVISEHLGLSWAELAKELQFSVEDINRIRVENPNSLLEQSVALLNLWVIREGQNANMENLYTALQSIDRGEIVNMLE [R19K],-0.048 ± 0.17
16,MKMAVISEHLGLSWAELAQELQFSVEDINRIRVENPNSLLEQSVALLNLWVIREGQNANMENLYTALQSIDRGEIVNMLE [R19Q],-0.052 ± 0.12
17,MKMADISEHLGLSWAELARELQFSVEDINRIRVENPNSLLEQSVALLNLWVIREGQNANMENLYTALQSIDRGEIVNMLE [V5D],-0.605 ± 0.14
18,MKMANISEHLGLSWAELARELQFSVEDINRIRVENPNSLLEQSVALLNLWVIREGQNANMENLYTALQSIDRGEIVNMLE [V5N],-0.606 ± 0.24
19,MKMAVISEHLPLSWAELARELQFSVEDINRIRVENPNSLLEQSVALLNLWVIREGQNANMENLYTALQSIDRGEIVNMLE [G11P],-0.997 ± 0.49
20,MKMAVISEHLGLSWAELARELQFSVEDINRIRVENPNSLLEQSVALLNLWVIREGQNANMEFLYTALQSIDRGEIVNMLE [N62F],0.034 ± 0.13
21,MKMAVISEHLGLSWAELARELQFSVEDINRIRVENPNSLLEQSVALLNLWVIREGQNANMENLYTALQSIRRGEIVNMLE [D71R],0.008 ± 0.049
22,MKMAVISEHLGLSWAELARELQFSVEDINRIRVENPNSLLEQSVALLNLWVIREGQNANMENLYTALQSIDCGEIVNMLE [R72C],-0.146 ± 0.14
23,MKMAVISEHLGLSWAELARELQFSVEDINRIRVENPNSLLEQSVALLNLWVIREGQNPNMENLYTALQSIDRGEIVNMLE [A58P],0.195 ± 0.083

row,Variant,abundance fitness
1,MKMAVISEHLGLSWAELARELQFSVEDINRIRVENPNSLLEQSVALLNLWVIREGQNKNMENLYTALQSIDRGEIVNMLE [A58K],0.046 ± 0.057
2,MKMAVISEHLGLSWAELARELQFSVRDINRIRVENPNSLLEQSVALLNLWVIREGQNANMENLYTALQSIDRGEIVNMLE [E26R],-0.104 ± 0.051
3,MKMAVISEHLGLSWAELARELQFSVNDINRIRVENPNSLLEQSVALLNLWVIREGQNANMENLYTALQSIDRGEIVNMLE [E26N],0.016 ± 0.15
4,MKMAVISEHLGLSWAELARELQFSVEDINRIRVENPNSLLEQSVALLNLWVIREGQNANMSNLYTALQSIDRGEIVNMLE [E61S],-0.284 ± 0.16
5,MKMAVISEHLGLSWAELARELQFSVEDINRIRVENPNSLLEQSVALLNLWVIREGQNANMENLYTALQFIDRGEIVNMLE [S69F],-0.341 ± 0.11
6,MKMAVISEHLGSSWAELARELQFSVEDINRIRVENPNSLLEQSVALLNLWVIREGQNANMENLYTALQSIDRGEIVNMLE [L12S],0.243 ± 0.092
7,MKMAVISEHLGLSWAELARELQFSVEDINRIRVENPNSLLEQSVALLNLWVIREGQNANMENLYNALQSIDRGEIVNMLE [T65N],-0.004 ± 0.14
8,MKMAVISEHLGLSWAELARELQFSVEDINRIRVENPNSLLEQSVALLNLWVIRDGQNANMENLYTALQSIDRGEIVNMLE [E54D],-0.3 ± 0.1
9,MKMAVISEHLGLSWAELARELQFSVEDIPRIRVENPNSLLEQSVALLNLWVIREGQNANMENLYTALQSIDRGEIVNMLE [N29P],-0.952 ± 0.22
10,MKMAVISEHLGLSWAELARELQFSVEDINRIRVENPNSLLEQSVALLNLVVIREGQNANMENLYTALQSIDRGEIVNMLE [W50V],-0.923 ± 0.15
11,MKKAVISEHLGLSWAELARELQFSVEDINRIRVENPNSLLEQSVALLNLWVIREGQNANMENLYTALQSIDRGEIVNMLE [M3K],-0.155 ± 0.13
12,MKCAVISEHLGLSWAELARELQFSVEDINRIRVENPNSLLEQSVALLNLWVIREGQNANMENLYTALQSIDRGEIVNMLE [M3C],-0.385 ± 0.07
13,MKHAVISEHLGLSWAELARELQFSVEDINRIRVENPNSLLEQSVALLNLWVIREGQNANMENLYTALQSIDRGEIVNMLE [M3H],-0.233 ± 0.26
14,MKMAVISEHLGLSWAELARELQFSVEDINRITVENPNSLLEQSVALLNLWVIREGQNANMENLYTALQSIDRGEIVNMLE [R32T],-0.141 ± 0.083
15,MKMAVISEHLGLSWAELARELQFSVEDINRIRVENPNSLLEQSVALLNCWVIREGQNANMENLYTALQSIDRGEIVNMLE [L49C],-0.097 ± 0.09
16,MKMAVISEHLGLSWAELARELQFSVEDINRIRVENPNSLLEQSVALLNWWVIREGQNANMENLYTALQSIDRGEIVNMLE [L49W],-0.359 ± 0.074
17,MKMAVISEHLGLSWAELARELQFSVEDINRIRVENPNSLLEQSVALLNLWVIREGQCANMENLYTALQSIDRGEIVNMLE [N57C],-0.168 ± 0.21
18,MKMAVISEHLGLSWAELARELQFSVEDINRIRVENPNSLLEQSVALLNLWVIREGQLANMENLYTALQSIDRGEIVNMLE [N57L],-0.108 ± 0.066
19,MKMAVISEHLGLSWAELARELQFSVEDINRIRVENPNSLLEQSVALLNLWVIREGQWANMENLYTALQSIDRGEIVNMLE [N57W],-0.175 ± 0.08
20,MKMAVISEHLGLSWAELARELQFSVEDINRIRVENPNSLLEQSVALLNLWVIREGQFANMENLYTALQSIDRGEIVNMLE [N57F],-0.437 ± 0.19
21,MKMAVISEHLGLSWAELARELQFSVETINRIRVENPNSLLEQSVALLNLWVIREGQNANMENLYTALQSIDRGEIVNMLE [D27T],-0.236 ± 0.14
22,MKMAVIMEHLGLSWAELARELQFSVEDINRIRVENPNSLLEQSVALLNLWVIREGQNANMENLYTALQSIDRGEIVNMLE [S7M],-0.852 ± 0.4
23,MRMAVISEHLGLSWAELARELQFSVEDINRIRVENPNSLLEQSVALLNLWVIREGQNANMENLYTALQSIDRGEIVNMLE [K2R],-0.045 ± 0.067
